Here are results for two molecules from publication PMC9949253 (2023).

The target in this assay is BTN3A1 full intracellular domain (BFI) (Homo sapiens, UniProt O00481). Description: ITC.

In general, Kd refers to the free concentration of one partner at which half of the binding sites on the other are occupied at equilibrium, for simple one-to-one binding. Lower therefore signals higher affinity.

Chain of BTN3A1 full intracellular domain (BFI) (O00481 272-513): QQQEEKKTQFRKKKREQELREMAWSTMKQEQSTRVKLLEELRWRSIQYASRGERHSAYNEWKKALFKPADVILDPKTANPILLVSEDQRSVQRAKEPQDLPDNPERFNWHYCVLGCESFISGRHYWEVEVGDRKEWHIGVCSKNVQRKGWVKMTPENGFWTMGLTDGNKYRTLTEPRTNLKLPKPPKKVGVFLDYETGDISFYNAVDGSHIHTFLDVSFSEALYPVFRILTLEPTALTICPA

B1: BTN2A1 ID271 (protein)
chain: KLQKEKKILSGEKEFERETREIALKELEKERVQKEEELQVKEKLQEELRWRRTFLHAVDVVLDPDTAHPDLFLSEDRRSVRRCPFRHLGESVPDNPERFDSQPCVLGRESFASGKHYWEVEVENVIEWTVGVCRDSVERKGEVLLIPQNGFWTLEMHKGQYRAVSSPDRILPLKESLCRVGVFLDYEAGDVSFYNMRDRSHIYTCPRSAFSVPVRPFFRLGCEDSPIFICPALTGANGVTVPEEGLTLHRVGTHQSL
modifications: HMBPP
With B1, the Kd was found to be 0.78 µM.

B2: BTN2A1 ID271 (protein)
chain: KLQKEKKILSGEKEFERETREIALKELEKERVQKEEELQVKEKLQEELRWRRTFLHAVDVVLDPDTAHPDLFLSEDRRSVRRCPFRHLGESVPDNPERFDSQPCVLGRESFASGKHYWEVEVENVIEWTVGVCRDSVERKGEVLLIPQNGFWTLEMHKGQYRAVSSPDRILPLKESLCRVGVFLDYEAGDVSFYNMRDRSHIYTCPRSAFSVPVRPFFRLGCEDSPIFICPALTGANGVTVPEEGLTLHRVGTHQSL
modifications: 4-M-HMBPP
As for B2, binding was put at a Kd of 190 µM.
